Source: patent US20250163182A1 (Janssen / Centocor, published 2025)
Where a chain is given by its changes, count along the chain named. Each block holds one binder with its values, some of them ahead of it.

Experiments:
human ENPP3 on cells = biological target: T1, human ENPP3 on cells (human, UniProt O14638 1-875); assay: flow cytometry on CHO cells overexpressing ENPP3
T1 construct: whole, on cells; also called ENPP3 on A704, VMRCRCW, HepG2, TUHR4TKB, TUHR10TKB; CHO-K1 ENPP3 OE
T1 sequence (looked up): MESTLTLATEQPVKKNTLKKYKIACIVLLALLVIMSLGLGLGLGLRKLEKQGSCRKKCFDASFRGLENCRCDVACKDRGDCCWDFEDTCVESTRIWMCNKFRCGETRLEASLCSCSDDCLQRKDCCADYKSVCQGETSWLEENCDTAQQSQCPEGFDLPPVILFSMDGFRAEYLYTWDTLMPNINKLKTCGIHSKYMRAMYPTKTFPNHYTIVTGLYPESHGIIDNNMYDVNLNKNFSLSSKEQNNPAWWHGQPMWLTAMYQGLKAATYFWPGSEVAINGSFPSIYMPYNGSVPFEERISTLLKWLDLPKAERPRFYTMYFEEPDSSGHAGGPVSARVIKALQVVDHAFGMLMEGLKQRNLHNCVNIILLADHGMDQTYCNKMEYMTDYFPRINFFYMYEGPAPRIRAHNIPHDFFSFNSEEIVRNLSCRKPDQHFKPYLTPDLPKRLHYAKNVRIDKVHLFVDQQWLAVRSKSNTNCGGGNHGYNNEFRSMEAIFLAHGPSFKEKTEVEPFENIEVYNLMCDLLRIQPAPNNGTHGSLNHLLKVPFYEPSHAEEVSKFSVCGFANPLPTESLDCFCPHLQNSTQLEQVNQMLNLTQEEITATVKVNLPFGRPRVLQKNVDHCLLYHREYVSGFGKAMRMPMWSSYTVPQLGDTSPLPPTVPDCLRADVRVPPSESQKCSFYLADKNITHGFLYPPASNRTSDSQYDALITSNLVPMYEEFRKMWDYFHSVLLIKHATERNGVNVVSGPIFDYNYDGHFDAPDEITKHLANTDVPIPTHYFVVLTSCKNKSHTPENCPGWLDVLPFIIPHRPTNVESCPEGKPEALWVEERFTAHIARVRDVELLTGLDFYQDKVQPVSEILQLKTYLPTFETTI
Experimental: To evaluate the specificity of binders to ENPP3 compared to other ENPP family members, cell binding was assessed on CHOK1 cells overexpressing ENPP1, ENPP2, or ENPP3 (FIG. 9).

ENPP2 on CHOK1 cells = ENPP2 on CHOK1 cells (UniProt Q13822 36-863); assay: flow cytometry on CHO cells overexpressing ENPP2
ENPP1 on CHOK1 cells = biological target: T2, ENPP1 on CHOK1 cells (UniProt P22413 1-925, limits assumed); assay: flow cytometry on CHO cells overexpressing ENPP1
T2 construct: whole, on cells; also called ectonucleotide pyrophosphatase/phosphodiesterase family member 1; CHO ENPP1 OE
T2 sequence (looked up): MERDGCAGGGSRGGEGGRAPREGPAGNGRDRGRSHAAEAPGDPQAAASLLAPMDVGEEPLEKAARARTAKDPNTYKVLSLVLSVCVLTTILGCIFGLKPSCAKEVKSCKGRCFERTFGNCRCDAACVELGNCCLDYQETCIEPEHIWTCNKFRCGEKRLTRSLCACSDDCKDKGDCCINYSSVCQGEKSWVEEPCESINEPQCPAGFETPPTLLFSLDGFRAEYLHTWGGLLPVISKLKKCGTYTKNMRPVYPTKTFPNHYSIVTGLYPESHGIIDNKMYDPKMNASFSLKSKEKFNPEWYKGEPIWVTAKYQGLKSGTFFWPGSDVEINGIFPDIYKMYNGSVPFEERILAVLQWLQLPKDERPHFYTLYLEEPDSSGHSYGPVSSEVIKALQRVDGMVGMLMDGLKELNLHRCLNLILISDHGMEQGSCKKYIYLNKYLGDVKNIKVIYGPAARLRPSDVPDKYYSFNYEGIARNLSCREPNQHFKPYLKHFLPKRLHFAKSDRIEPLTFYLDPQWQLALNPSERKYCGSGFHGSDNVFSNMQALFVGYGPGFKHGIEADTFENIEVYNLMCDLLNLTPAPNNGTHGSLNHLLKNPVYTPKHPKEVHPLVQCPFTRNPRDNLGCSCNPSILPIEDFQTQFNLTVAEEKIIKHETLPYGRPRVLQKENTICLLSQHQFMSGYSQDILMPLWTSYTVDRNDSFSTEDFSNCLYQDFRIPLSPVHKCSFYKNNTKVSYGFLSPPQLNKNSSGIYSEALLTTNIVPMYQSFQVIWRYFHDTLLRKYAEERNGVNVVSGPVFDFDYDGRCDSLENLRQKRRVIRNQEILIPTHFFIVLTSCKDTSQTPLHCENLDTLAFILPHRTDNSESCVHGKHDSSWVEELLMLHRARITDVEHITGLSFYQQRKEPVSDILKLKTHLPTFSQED

human ENPP3 = biological target: T3, human ENPP3 (human, UniProt O14638 46-875, limits assumed); assay: binding affinity to human ENPP3; method not stated
T3 construct: neither the construct nor the method is stated; also called ectonucleotide pyrophosphatase/phosphodiesterase family member 3
T3 sequence (looked up): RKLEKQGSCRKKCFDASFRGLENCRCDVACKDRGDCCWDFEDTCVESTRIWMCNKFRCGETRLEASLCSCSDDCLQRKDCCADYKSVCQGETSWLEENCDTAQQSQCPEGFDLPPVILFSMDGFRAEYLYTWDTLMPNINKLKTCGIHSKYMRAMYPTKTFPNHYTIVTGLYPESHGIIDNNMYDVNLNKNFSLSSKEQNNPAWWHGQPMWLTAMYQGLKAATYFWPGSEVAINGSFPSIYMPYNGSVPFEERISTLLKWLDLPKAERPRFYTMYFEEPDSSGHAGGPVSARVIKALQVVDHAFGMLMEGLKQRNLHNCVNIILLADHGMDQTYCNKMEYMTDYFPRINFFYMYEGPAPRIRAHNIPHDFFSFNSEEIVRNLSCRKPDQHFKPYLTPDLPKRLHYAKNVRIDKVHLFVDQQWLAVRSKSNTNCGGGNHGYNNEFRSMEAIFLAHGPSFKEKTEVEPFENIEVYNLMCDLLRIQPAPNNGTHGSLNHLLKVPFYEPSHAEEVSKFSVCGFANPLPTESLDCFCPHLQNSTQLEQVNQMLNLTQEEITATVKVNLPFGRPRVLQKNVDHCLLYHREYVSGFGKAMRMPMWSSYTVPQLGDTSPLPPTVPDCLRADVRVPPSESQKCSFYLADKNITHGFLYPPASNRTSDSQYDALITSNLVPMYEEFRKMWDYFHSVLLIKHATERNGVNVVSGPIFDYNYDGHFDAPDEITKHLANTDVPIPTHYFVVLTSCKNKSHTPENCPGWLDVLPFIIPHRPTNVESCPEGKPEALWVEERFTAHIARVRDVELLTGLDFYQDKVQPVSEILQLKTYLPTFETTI

cynomolgus monkey ENPP3 = biological target: T4, cynomolgus monkey ENPP3 (cynomolgus monkey, UniProt A0A2K5TKP4 46-874); assay: binding affinity to cyno ENPP3; method not stated
T4 construct: also called cyno ENPP3
T4 sequence: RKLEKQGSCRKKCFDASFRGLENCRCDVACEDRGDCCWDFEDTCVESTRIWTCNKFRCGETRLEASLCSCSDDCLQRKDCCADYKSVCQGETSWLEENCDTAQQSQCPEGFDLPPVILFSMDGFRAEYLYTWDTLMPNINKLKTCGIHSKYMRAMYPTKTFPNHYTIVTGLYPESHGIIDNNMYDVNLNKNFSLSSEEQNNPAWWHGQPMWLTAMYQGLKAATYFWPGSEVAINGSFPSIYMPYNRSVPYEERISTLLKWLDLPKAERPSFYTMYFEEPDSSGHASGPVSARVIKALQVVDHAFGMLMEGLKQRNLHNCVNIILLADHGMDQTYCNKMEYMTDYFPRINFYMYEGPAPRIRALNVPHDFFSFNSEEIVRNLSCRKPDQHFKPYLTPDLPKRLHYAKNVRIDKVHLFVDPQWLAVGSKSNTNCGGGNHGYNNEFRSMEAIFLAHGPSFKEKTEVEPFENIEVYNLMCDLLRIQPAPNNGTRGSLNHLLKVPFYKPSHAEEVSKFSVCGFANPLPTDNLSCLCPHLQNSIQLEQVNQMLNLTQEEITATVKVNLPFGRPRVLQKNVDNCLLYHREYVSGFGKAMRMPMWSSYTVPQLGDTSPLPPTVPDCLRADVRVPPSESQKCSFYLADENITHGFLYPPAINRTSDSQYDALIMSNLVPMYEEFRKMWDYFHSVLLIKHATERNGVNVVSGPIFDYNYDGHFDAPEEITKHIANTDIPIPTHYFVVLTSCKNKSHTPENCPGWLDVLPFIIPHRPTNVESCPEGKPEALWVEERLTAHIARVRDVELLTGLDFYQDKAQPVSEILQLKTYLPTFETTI

EC50 (read off the curve) (human ENPP3 on cells): ~0.5 µg/mL
B1: NPP3B232 (bispecific antibody, IgG1)
VH: QVQLQESGPGLVKPSETLSLTCTVSGGSISNYYWSWIRQPAGKGLEWIGRIYASGSTNYNPSLKSRVTMSVDTSKNQFSLRLRSVTATDTAVYYCAREGYSSTLYDNAFDFWGQGTMVTVSS
VL: DIQMTQSPSSVSASVGGRVTITCRASQGISTWLAWYQQKPGKAPKLLIYAASSLQSGVPSRFSGSGSGTDFTLTISSLQPEDFATYYCQQANSFPLTFGGGTKVEIK
scFv: EIVLTQSPATLSASPGERVTLSCSASSSVSYMNWYQQKPGQAPRRWIYDSSKLASGVPARFSGSGSGRDYTLTISSLEPEDFAVYYCQQWSRNPPTFGGGTKVEIKGGSEGKSSGSGSESKSTGGSQVQLVQSGAEVKKPGSSVKVSCKASGYTFTRSTMHWVKQAPGQGLEWIGYINPSSAYTNYNQKFQGRVTLTADKSTSTAYMELSSLRSEDTAVYYCASPQVHYDYAGFPYWGQGTLVTVSS
notes: Fab-IgG1 (hole) plus scFv-Fc in VL-linker-VH-Fc orientation
binding result (ENPP2 on CHOK1 cells): no binding (tested: Log(ug/mL) about 1.1 (about 12 ug/mL))
binding result (ENPP1 on CHOK1 cells): no binding (tested: Log(ug/mL) about 1.1 (about 12 ug/mL))

EC50 (read off the curve) (human ENPP3 on cells): ~1 µg/mL
B2: NPP3B239 (bispecific antibody, IgG1)
VH: EVQLVESGGGLVKPGGSLRLSCAASGFIFSDYSMNWVRQAPGKGLEWVSSISSGSSYIYYADSLKGRFTISRDNAKNSLYLQMSSLRAEDTAVYYCVRGLDYFDYWGQGALVTVSS
VL: DIQMTQSPSFLSASVGDRVTITCRASQDISNYLAWYQQKPGRAPKLLIYVASTLQSGVPSRFSGSGSGTEFTLTISSLQPEDFATYYCQQLNSYPRTFGQGTKVEIK
scFv: B1 scFv
notes: Fab-IgG1 (hole) plus scFv-Fc in VL-linker-VH-Fc orientation; also called NPP3B239.003
binding result (ENPP2 on CHOK1 cells): no binding (tested: Log(ug/mL) about 1.1 (about 12 ug/mL))
binding result (ENPP1 on CHOK1 cells): no binding (tested: Log(ug/mL) about 1.1 (about 12 ug/mL))

Continued, binder first:

B3: NPP3B101 (antibody, V domains shown)
VH: QVQLQESGPGLVKTSETLSLTCTVSGGSISSHYWSWIRQPPGKGLEWIGNIFYSGSTNYNPSLKSRVTMSVDTSKNHFSLKLISVTTADTAIYYCARHDHVWFDPWGQGTLVTVSS
VL: EIVLTQSPGTLSVFPGERATLSCRASQSVSRNLVWYQQKPGQAPRLLIYGASTRATGIPDRFSGSGSGTEFTLTISSLQSEDFAVYYCQQYNNWPPWTFGQGTKVEIK
notes: mAb from Ablexis Kappa mice
Kd (human ENPP3): 0.193 nM
Kd (cynomolgus monkey ENPP3): 9.58 nM

B4: NPP3B61 (antibody, V domains shown)
VH: QVQLQESGPGLVRPSETLSLTCTVSGGSISSYYWSWIRQPAGKGLEWIGRIYTTGRIYTSGYTNYNPSLKSRVTMSIDTSKIQFSLRLNSVTAADTAVYWCARGGELFTDGFDIWGQGTMVTVSS
VL: EIVMTQSPGTLSLSPGERATLSCRASQSVISTYLAWYQQNPGQAPRLLIYGASSRATGIPDRFSGSGSGTDFTLTISRLEPEDFAVYYCQQYDTSPITFGQGTRLEIK
notes: mAb from Ablexis Kappa mice
Kd (human ENPP3): 0.443 nM
Kd (cynomolgus monkey ENPP3): 109 nM

B5: NPP3B62 (antibody, V domains shown)
VH: B4 VH
VL: B4 VL with A85V
notes: mAb from Ablexis Kappa mice
Kd (human ENPP3): 0.258 nM
Kd (cynomolgus monkey ENPP3): 12 nM
